These are literature values, as cited in publication PMC7248566.

For this data set, the target named is Fibrinogen beta (Fgβ) (Homo sapiens) (UniProt P02675).

Broadly, the Kd is the equilibrium constant for the complex coming apart. On to SdrG (from UniProt Q9KI13), for which the Kd was 350 nM.
